B1: REGN10987 (antibody, V domains shown)
VH: QVQLVESGGGVVQPGRSLRLSCAASGFTFSNYAMYWVRQAPGKGLEWVAVISYDGSNKYYADSVKGRFTISRDNSKNTLYLQMNSLRTEDTAVYYCASGSDYGDYLLVYWGQGTLVTVSS
VL: QSALTQPASVSGSPGQSITISCTGTSSDVGGYNYVSWYQQHPGKAPKLMIYDVSKRPSGVSNRFSGSKSGNTASLTISGLQSEDEADYYCNSLTSISTWVFGGGTKLTVL
B2: P5C3 human monoclonal antibody (antibody, V domains shown)
VH: QMQLVQSGPEVKKPGTSVKVSCKASGFTFTSSAVQWVRQARGQRLEWIGWIVVGSGNTDYAQQFQERVTITRDMSTSTAYMELSSLGSEDTAVYYCAAPNCSGGSCYDGFDLWGQGTMVTVSS
VL: EIVLTQSPGTLSLSPGERATLSCRGSQSVRSSYLGWYQQKPGQAPRLLIYGASSRATGIPDRFSGSGSGTDFTLTISRLEPEDFAVYYCQQYGSSPWTFGQGTKVEIK
B3: REGN10933 (antibody, V domains shown)
VH: QVQLVESGGGLVKPGGSLRLSCAASGFTFSDYYMSWIRQAPGKGLEWVSYITYSGSTIYYADSVKGRFTISRDNAKSSLYLQMNSLRAEDTAVYYCARDRGTTMVPFDYWGQGTLVTVSS
VL: DIQMTQSPSSLSASVGDRVTITCQASQDITNYLNWYQQKPGKAPKLLIYAASNLETGVPSRFSGSGSGTDFTFTISGLQPEDIATYYCQQYDNLPLTFGGGTKVEIK

Target: Spike RBD protein (SARS-CoV-2, UniProt P0DTC2)
Assay: Luminex bead-based competitive binding assay

Binder	binding result
B1	binds
B2	binds
B3	binds
